Earlier results on 2 molecules are cited in patent US20070225245A1, “Viral vector driven mutant bacterial cytosine deaminase gene and uses thereof” (priority 1998, published 2007).

The conditions of the data set: cited from earlier work.

B1: yCD: yeast cytosine deaminase (protein, UniProt Q12178 1-158, looked up)
Cytosine deaminase: MVTGGMASKWDQKGMDIAYEEAALGYKEGGVPIGGCLINNKDGSVLGRGHNMRFQKGSATLHGEISTLENCGRLEGKVYKDTTLYTTLSPCDMCTGAIIMYGIPRCVVGENVNFKSKGEKYLQTRGHEVVVVDDERCKKIMKQFIDERPQDWFEDIGE
For B1, where the note is “by 96 h at 37° C.”, the enzyme activity result is recorded as “loses all activity”.

B2: bCD: wild type bacterial cytosine deaminase (protein, UniProt P25524 2-427, looked up)
Cytosine deaminase: SNNALQTIINARLPGEEGLWQIHLQDGKISAIDAQSGVMPITENSLDAEQGLVIPPFVEPHIHLDTTQTAGQPNWNQSGTLFEGIERWAERKALLTHDDVKQRAWQTLKWQIANGIQHVRTHVDVSDATLTALKAMLEVKQEVAPWIDLQIVAFPQEGILSYPNGEALLEEALRLGADVVGAIPHFEFTREYGVESLHKTFALAQKYDRLIDVHCDEIDDEQSRFVETVAALAHHEGMGARVTASHTTAMHSYNGAYTSRLFRLLKMSGINFVANPLVNIHLQGRFDTYPKRRGITRVKEMLESGINVCFGHDDVFDPWYPLGTANMLQVLHMGLHVCQLMGYGQINDGLNLITHHSARTLNLQDYGIAAGNSANLIILPAENGFDALRRQVPVRYSVRGGKVIASTQPAQTTVYLEQPEAIDYKR
For B2, the retained activity (at 168 h) is 100%.
